From article PMC7203112, “Structural basis for the complex DNA binding behavior of the plant stem cell regulator WUSCHEL”

B1: f_TGAA (dsDNA)
DNA 1: CATCGTCGTTCATTCAATGGG
DNA 2: CCCATTGAATGAACGACGATG
B2: f_TAAT (dsDNA)
DNA 1: CAATGTGTTAATGGGTTGTT
DNA 2: AACAACCCATTAACACATTG

Key:
WUS-HD F101A = target: T1, WUS-HD F101A (Arabidopsis thaliana, UniProt Q9SB92 34-103, F101A); assay: EMSA; predominantly monomer; probe called 2xTGAA; MST: 20 mM Tris-HCl pH 8.0, 75 mM NaCl, 10 mM MgCl2, 0.05% Tween-20, 20 C, 50 nM YFP-WUS; ITC: same without Tween, 20 C; EMSA: 10 mM Tris-HCl pH 8.0, 75 mM NaCl, 50 ug/ml poly(dI-dC), 1 mM EDTA, 1 mM DTT, 5% glycerol; conditions: protein: recombinant; tags: none after TEV cleavage; label: Cy5; blunt
T1 sequence: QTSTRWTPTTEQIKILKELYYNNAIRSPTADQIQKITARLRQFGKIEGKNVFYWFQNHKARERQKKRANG

WUS-HD T35R [1] = target: T2, WUS-HD T35R (Arabidopsis thaliana, UniProt Q9SB92 34-103, T35R); assay: EMSA; MST: 20 mM Tris-HCl pH 8.0, 75 mM NaCl, 10 mM MgCl2, 0.05% Tween-20, 20 C, 50 nM YFP-WUS; ITC: same without Tween, 20 C; EMSA: 10 mM Tris-HCl pH 8.0, 75 mM NaCl, 50 ug/ml poly(dI-dC), 1 mM EDTA, 1 mM DTT, 5% glycerol; conditions: protein: recombinant; tags: none after TEV cleavage; label: Cy5; blunt
T2 sequence: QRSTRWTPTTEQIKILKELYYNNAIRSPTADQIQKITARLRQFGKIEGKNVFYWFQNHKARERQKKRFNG

MBP-WUS-FL = target: T3, MBP-WUS-FL (Arabidopsis thaliana, UniProt Q9SB92 1-292); assay: as above; conditions: protein: recombinant; tags: N-terminal His6-MBP; chain copies: 2; label: Cy5; blunt
T3 sequence: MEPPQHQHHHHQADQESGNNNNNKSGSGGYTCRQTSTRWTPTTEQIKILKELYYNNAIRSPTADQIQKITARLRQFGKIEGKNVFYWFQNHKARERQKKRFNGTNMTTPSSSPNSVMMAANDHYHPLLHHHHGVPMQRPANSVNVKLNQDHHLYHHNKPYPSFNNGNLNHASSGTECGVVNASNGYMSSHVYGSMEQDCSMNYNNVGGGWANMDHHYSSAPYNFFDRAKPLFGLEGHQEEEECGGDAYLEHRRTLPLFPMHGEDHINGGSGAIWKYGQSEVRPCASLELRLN

WUS-HD S36R [2] = target: T4, WUS-HD S36R (Arabidopsis thaliana, UniProt Q9SB92 34-103, S36R); assay: as above; conditions: protein: recombinant; tags: none after TEV cleavage; label: Cy5; blunt
T4 sequence: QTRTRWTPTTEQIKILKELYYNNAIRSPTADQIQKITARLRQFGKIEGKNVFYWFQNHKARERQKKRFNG

WUS-HD R94K = target: T5, WUS-HD R94K (Arabidopsis thaliana, UniProt Q9SB92 34-103, R94K); assay: EMSA; like wt; MST: 20 mM Tris-HCl pH 8.0, 75 mM NaCl, 10 mM MgCl2, 0.05% Tween-20, 20 C, 50 nM YFP-WUS; ITC: same without Tween, 20 C; EMSA: 10 mM Tris-HCl pH 8.0, 75 mM NaCl, 50 ug/ml poly(dI-dC), 1 mM EDTA, 1 mM DTT, 5% glycerol; conditions: protein: recombinant; tags: none after TEV cleavage; label: Cy5; blunt
T5 sequence: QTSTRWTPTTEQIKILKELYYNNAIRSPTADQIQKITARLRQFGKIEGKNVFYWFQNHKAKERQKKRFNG

WUS-HD T35R [3] = target: T2, WUS-HD T35R; assay: EMSA; predominantly monomer; MST: 20 mM Tris-HCl pH 8.0, 75 mM NaCl, 10 mM MgCl2, 0.05% Tween-20, 20 C, 50 nM YFP-WUS; ITC: same without Tween, 20 C; EMSA: 10 mM Tris-HCl pH 8.0, 75 mM NaCl, 50 ug/ml poly(dI-dC), 1 mM EDTA, 1 mM DTT, 5% glycerol; conditions: protein: recombinant; tags: none after TEV cleavage; label: Cy5; blunt
WUS-HD S36R [4] = target: T4, WUS-HD S36R; assay: as above; conditions: protein: recombinant; tags: none after TEV cleavage; label: Cy5; blunt
WUS-HD RRK = target: T6, WUS-HD RRK (Arabidopsis thaliana, UniProt Q9SB92 34-103, T35R;S36R;R94K); assay: EMSA; similar to T35R and S36R; MST: 20 mM Tris-HCl pH 8.0, 75 mM NaCl, 10 mM MgCl2, 0.05% Tween-20, 20 C, 50 nM YFP-WUS; ITC: same without Tween, 20 C; EMSA: 10 mM Tris-HCl pH 8.0, 75 mM NaCl, 50 ug/ml poly(dI-dC), 1 mM EDTA, 1 mM DTT, 5% glycerol; conditions: protein: recombinant; tags: none after TEV cleavage; label: Cy5; blunt
T6 sequence: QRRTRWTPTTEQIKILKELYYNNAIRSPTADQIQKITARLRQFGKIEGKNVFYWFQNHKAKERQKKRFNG

Binder	binding result (WUS-HD F101A)	binding result (WUS-HD T35R [1])	Kd (MBP-WUS-FL) [nM]	binding result (WUS-HD S36R [2])	binding result (WUS-HD R94K)	binding result (WUS-HD T35R [3])	binding result (WUS-HD S36R [4])	binding result (WUS-HD RRK)
B1	binds	binds	360 ± 60	binds	–	–	–	–
B2	–	–	3150 ± 260	–	binds	binds	binds	binds
